US20210032351A1 (XDCEXPLORER SHANGHAI, published 2021)
Blank lines part the entries; values can stand above or below the binder they belong to.

Legend:
[1] = molecular target: T1, human EGFRvIII-hFc protein (human, UniProt P00533 25-645); experiment: ELISA, coated EGFRvIII-hFc, antibody 1 nM
T1 construct: extracellular domain; made in HEK293 cells, purified on protein A; also called immunogen A; hFc-tagged EGFRvIII protein; not shown: human IgG Fc fragment (hFc) of the pCpC vector
Procedure, shortened: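 The antibody is applied to BSA-blocked wells pre-coated with EGFRvIII-hFc (1.0 μg/mL, overnight, 4° C) for 2 h at 37° C. Detection uses an HRP secondary (2 h, 37° C), TMB for 30 min, HCl stop and absorbance at 450 nm.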

[2] = molecular target: T2, human EGFR protein (wild-type), on cells (human, UniProt P00533 25-1210); experiment: FACS on A431 cells (wild-type EGFR), Alexa 488 secondary antibody, mean fluorescence intensity
T2 construct: whole, on cells; transfected on CHO-K1 cells; endogenous on the human cell lines; the cell is named under assay; also called wild-type EGFR; hEGFR
Method: The cells are washed twice with the HBSS buffer and are counted, and then the cells are diluted with the HBSS buffer to 2×10⁶ cells/ml, added with 1% goat serum blocking solution, with the percentage being the mass percentage, and incubated on ice for 30 minutes, and then centrifugally washed twice with the HBSS buffer. The collected cells are suspended to 2×10⁶ cells/mL with an FACS buffer (HBSS+1% BSA, with the percentage being the mass percentage), added to a 96-well FACS reaction plate at 100 μL/well, then added with 100 μL/well of the purified EGFRvIII antibody (samples to be tested) obtained in example 2, and incubated on ice for 2 hours. The plate is centrifugally washed twice with the FACS buffer, added with 100 μL/well of a fluorescence (Alexa 488) labeled secondary antibody (purchased from Invitrogen), and then incubated on ice for 1 hour. […] The cells are suspended in 100 μL of the FACS buffer, and the results are detected and analyzed by FACS (FACS Calibur, purchased from BD). Data analysis is performed by using the software (CellQuest) to obtain the mean fluorescence intensity (MFI) of the cells. Data is further analyzed by using the software (GraphPad Prism5) to perform data fitting and calculate EC50. […]

[3] = molecular target: T3, human EGFRvIII-hFc protein (human, UniProt P00533 25-645); experiment: ELISA, EGFRvIII-hFc coated
T3 construct: extracellular domain; also called immunogen A; hFc-tagged EGFRvIII protein; not shown: human IgG Fc fragment (hFc) of the pCpC vector

OD450 nm [1]: 0.09 | EC50 (read off the curve) [2]: ~10 nM
B1: Murine anti-75G7 (antibody, V domains shown)
VH: EVQLQQSGPELVKPGASVKIPCKASGYTFTDYNMDWVKQSHGKSLEWIGDINPNNGDTIYNQKFKGKATLTVDKSSSTAYMELRSLTSEDTAVYYCARGDYDGYYPVYYAMDYWGQGTSVTVSS
VL: ENVLTQSPAIMSASPGEKVTMTCRASSSVSSSYLHWYQQKSGASPKLWIFSTSNLAAGVPARFSGSGSGTSYSLTVSSVEAEDAATYYCQQYSGYPLTFGAGTKLELK
notes: murine hybridoma antibody; also called 75G7C6

EC50 [3]: 0.5 nM | Maximum OD450 value [3]: 2.5 OD450
B2: Chimeric antibody 75G7 (antibody, human IgG1, V domains shown)
VH: B1 VH
VL: B1 VL
notes: also called c75G7C6; chimeric antibody c75G7C6
